Measurements published in the supplement of paper PMC9170038.

Tested on: K4 kissing-loop RNA reporter
Test: apparent KD of K4 kissing-loop reporter; higher = weaker reporter binding
Settings: Eterna round: R107
Procedure: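 RNA-MaP round R107: designed RNA switches with theophylline, tryptophan, arginine or FMN aptamers are transcribed on-chip within common flanks. They are titrated with a labelled K4 kissing-loop RNA reporter in RNA-MaP buffer (100 mM Tris pH 7.5, 80 mM KCl, 4 mM MgCl2), without ligand or with the indicated ligand. Median apparent KD per design.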

[1] = input ligand: theophylline 20 uM
[2] = input ligand: tryptophan 2.4 mM
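Note: bound reporter read as fluorescence of individual clusters on recovered sequencing chips by microscopy, with normalized cluster intensities fitted with a binding model.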

Sequence	apparent KD of K4 kissing-loop reporter (input ligand: FMN 200 uM) [nM]	apparent KD of K4 kissing-loop reporter (input ligand: arginine 13.2 mM) [nM]	apparent KD of K4 kissing-loop reporter (input ligand: none) [nM]	apparent KD of K4 kissing-loop reporter [1] [nM]	apparent KD of K4 kissing-loop reporter [2] [nM]
AAAUAAAGCAGUCACCCAGUGAUGUUGGAAGGAGCGUGCGAAAGCACAGGUAGGUCGCCGAUAAAGGACAAAGUCCGUGGCUGCA [#SwitchBubble 29 #K4Early]	275	350	253	279	190
AAAUUUAAUAUAUUUAAUUAAUUAUGUGAUACCAGACAUUUAUAAGUCCCUUGGCAGCACUUUGCAGUGAUGUUGCUUAUAAUAA [JR_SSTheophyA_Sub014]	88.8	97.1	91.4	192	83.8
AAAUUUAUAUUAGAUACCAGCAAAUUGAAAGUUUAUUAUGACAAGAGUGAUGUUCUUGUAUGCCCUUGGCAGCUGGUAUGGGUUU [KL-XTheo-B26]	112	106	120	111	108
AAAUUUUAAAGUGAUACCAGACAUCUCUAUUACAUUAAUAUAGCUAAGUGAUGUUUAGCAGUCCCUUGGCAGCACAAUUUAAUUA [JR_SSTheophyB_Sub012]	336	316	334	474	266
AAAUUUUCGAGUGAUGUUCGAAUAAUUUCAGAGGAUAUGCUUAAAAGCAGAAGGCUGUAUUACUAUUUGUUAUUAAAUUUUAUAA [JR_ExcFMNA_Sub001]	106	110	96.7	105	86.2
AACAGCAAUGCGGCCGCCACUUCGAGUUCAGUGAUGUUGAAAGAAUUAAAUAAAGAUCCCAAGAGGAGGACCGGGCAGUGCUGUU [Default title]	596	448	530	621	418
AACGGCCAGUCGGCCGCCACUCAAAGCAGUGAUGUUGCUAACUUUCUAAAAGAGUGAUGUUCUUAGAGGACCGGGACUAAUGUAA [Exclusion Tryptophan B GF 2]	115	147	125	143	102
AACGGCCAGUCGGCCGCCACUCGAUGCAGUGAUGUUGCUAACUUUCUAAAAGAGUGAUGUUCAUGGAGGACCGGGACUAGUGUAA [#30 K4 Tryptophan B Exclusion]	317	244	291	255	241
AACGUUUUGAGAAGGAGCGCGAUAAGCAGUGAUGUUGCUAUAAUUCUAUUUCUAUUUAAUUCGCAGGUAGGUCGCUCAAUACGUA [JR_SSArginiB_Sub019]	136	134	134	138	119
AACUGUCAAGGACAACAUUACUGAGGUGAUACCAGCAUCGAAAGAUGCCCUUGGCAGCACCAACUUGCAGUGAUGUUGCAAGUAA [Design6]	212	184	212	279	214
AAGAGGUAGGCGGCCGCCACUAGUUGUGAACACAUACGAGCCAGUGAUGUUGGUAUGGUGGGCGGUAGGACCGGGCCUACCUGAA [Exclusion - Tryptophan B (Freestyle 18)]	427	481	496	454	475
AAGCAGUCACUCGAAGCCAUCGAAGAUGGCCGAGGACCGGUACGGCCGCCACUCGGAGUGAUGUUCCGAAGACUGCAAAAUAAAA	313	303	355	363	306
AAGGAAUGUAUAGAUUAUAUACAUUCAACAGAGGAUAUGCAUUAUUGCAGAAGGCUGAAUGCAGUGAUGUUGCAAUAAUUAUUUA [#09 K4 FMN A Same State]	60.5	199	181	291	129
AAGGUAUCACCACAACAUCACUAAGGUGAUACCAGCAUCGAAAGAUGCCCUUGGCAGCACCAACUUGCAGUGAUGUUGCAAGUAA [(T)'-(H)'-(T1)-(T2)-(H1)-(H2)_Design9]	417	310	365	438	366
AAGUCUCGUUAAUUCGAGGUUACGAUCGAUACCAGUAGCGAGAGGUACCCUUGGCAGCGAAGUGAGUGAUGUUCAUGAAAGAAGA [KL-XTheoA12]	78.5	119	92.7	131	78
AAGUGAUGUUGUAGUGAUGUUGUGAUGUUGCAGGAUAUAUAGUGAUGUAGAAGGGUAUGUACAGUUUUUUUUUUUGAGUGUUGAU [sscsmullin]	79.7	36	62.2	47.8	66.2

Sequence	apparent KD of K4 kissing-loop reporter (input ligand: FMN 200 uM) [nM]	apparent KD of K4 kissing-loop reporter (input ligand: arginine 13.2 mM) [nM]	apparent KD of K4 kissing-loop reporter (input ligand: none) [nM]	apparent KD of K4 kissing-loop reporter [1] [nM]	apparent KD of K4 kissing-loop reporter [2] [nM]
AAGUGAUGUUGUAGUGAUGUUGUGAUGUUGCAGGAUAUAUAGUGAUGUAGAAGGGUAUGUGCAGUUUUCUUUUUUGAGUGUUGAU [aavamullin]	72.1	30.8	57.1	43.7	56.9
AAUAAAAUCACGGCCGCCACUGAAUAAUUGGUAAGUAGUGAUGUUACUUUACUUUUCUUAUUUAACAGGACCGGGUGAAUAUUUA [JR_ExcTryptoB_Sub009]	104	83.4	98.5	88.2	123
AAUAAACAGUCGGCCGCCACUUCAAUAGACUUAUUAUUGAAUGGUGUAGUUCUUCAGUGAUGUUGAAGGACCGGGACUUUCGCGC [Isesator]	157	134	145	139	158
AAUAAGGAGUGAUGUUCCAAGUGAUGUUAACGAGGACCGGUACGGCCGCCACUCGAUACGGCCGGAAAAUAAAAUAAAAUAAAAU [Same State - Tryptophan A (Freestyle 1)]	103	119	134	120	124
AAUAAGGUCGCCGAUACCAGCGCAGGCAGAGCAAAGCUCUGCCAAGUAGUGAUGUUACUGCGCCCUUGGCAGCGGUGGCACGACC [Omei KL Theo B SS C v3]	196	157	163	123	167
AAUAUAUAGUGAAGGAGCGCGAUAAGCAGUGAUGUUGCUUUGUUAUGAUUGUCUAUUUUUACGCAGGUAGGUCGCACUAUAUAUA [JR_ExcArginiB_Sub020]	165	104	126	109	122
AAUGUACAAGUGAUGUUUGUACUUUCCGAAGGAGCGUCUAAUAAGACAGGUAGGUCGCGGAUUAUCAUAAUUAUCAGGUUUUCAA [JR_SSArginiA_Sub015]	98.8	88.8	92.4	89.1	90.9
AAUUAAUGUAUAGAUUAUAUACAUUAAUCAGAGGAUAUGCUUUGUUGCAGAAGGCUGAAUGCAGUGAUGUUGCAAUUUUAAUUUA [JR_SSFMNA_Sub005]	50.8	99.8	54.7	87.3	46.7
AAUUGAGUGACGGCCGCCACUAGAGUGAUUUUUUUGUUUGAGUGAUGUUUUGAUGUUUGAUUUUGUAGGACCGGGUUGAGUGAUG [qqxzmullin]	305	306	357	528	247
AAUUUCGGAUACAUCAUAGUUUUAAUUCGGCGAGGACCGGUACGGCCGCCACUCGGUAUAGACGCGUCCAGUGAUGUUGGCGCUU [theeternabot_sameState_KL_Trp_A_45]	262	193	237	260	223
ACACUAUCGUCAUAGACGGUAGUGAACACACAGGAUAUGAGUGAUGUUAGAAGGGUGUAAGACUGUAUCGAAUAGAUACAGUCAA [FmnA 7 #K4BetweenAptamer #OpenEnded]	400	142	204	192	190
ACACUCGGCUCGGCCGCCACUCCAGUGAUGUUGGAGUCAUAGCUAUGACGAGAAGAGCGUUUUCGGAGGACCGGGAGCUCACAGG [Leveeder]	338	261	359	351	222
ACACUUUACGUAGGAUAUGCGACGAGUGAUGUUCGUCAGGCGGCUCUAGAUUAAACAAGCCGCCUAGCAGAAGGACGGGCAGUGU [Teaanso]	154	145	164	160	163
ACAGUUGCUAGUGAUACCAGACUAGCACUACGUAAUAUGUCAAGUGAUGUUUGACAACUAGUCCCUUGGCAGCGCGAUACGACUG [#11 K4 Theophylline B Same State]	235	289	259	269	225
ACAUCGGUUGAGAGUGAUGUUCCUUGUGUUCGAGGACCGGUACGGCCGCCACUCGGGUAGAAAAUAAAAGAUGUGUUUGAUUUUU [BDazzled - #15 SS Tryptophan A]	260	42.1	143	275	223
ACCAUCAAAGAUGGCCAGGACUCCGCUGAUACCAGAGUGAAAACACUCCCUUGGCAGCAGGUGAGUGAUGUUCACGAGUCCUGGA [Omel KL Theo A SS B v6]	986	330	476	448	836
